Test results as given in CN114573691A (EIGHT HOSPITALS IN AFFILIATED CITY OF GUANGZHOU MEDICAL; …, dated 2022).

B1: 中和抗体YB9-258 (antibody, V domains shown)
VH: EVQLVESGGGLIQPGGSLRLSCAASGLTVSSNYMHWVRQAPGKGLEWVSVLYAGGSAFYADSVKGRFTISRNNSKNTLYLQMNSLRAEDTAIYYCARGLGDYLDSWGQGTLVTVSS
VL: DIQMTQSPSSVSASVGDRVTITCRASQGIGSWLAWYQQKPGKAPQLLIYAASTLQSGVPPRFSGSGSGTDFTLTITSLQPEDFASYYCQQANSVLALTFGGGTKVEIK
B2: 中和抗体YB13-208 (antibody, V domains shown)
V domain 1: QITLKESGPTLVKPTQTLTLTCTFSGLSLSTSGVSVGWIRQPPGKAPEWLALIYWDDDKRYSPSLTSRLSITKDTSKNQVVLTMTNMDPVDTATYYCAHPRYYGDSSGYYWIWGQGTMVTVSS
V domain 2: SYELTQPPSVSVSPGQTARITCSGDALPKQYAYWYQQKPGQAPVVVMYKTSERPSGIPERFSGSSSGTTVTLTISGVQAEDEADYYCQSADSSGFYVFGTGTQVTVL

Key:
[1] = molecular target: T1, 新冠病毒SARS-CoV-2变异毒株Omicron(B.1.1.529)S1抗原 (SARS-CoV-2, UniProt P0DTC2 16-685); test: SPR (Biacore T200), S1 antigen coupled to CM5 chip, antibody as analyte
T1 construct: domain: S1; also called Omicron S1; Omicron(B.1.1.529)的S1蛋白

[2] = molecular target: T2, 新冠病毒SARS-CoV-2变异毒株Delta(B.1.617.2)S1抗原 (SARS-CoV-2, UniProt P0DTC2 16-685); test: as above
T2 construct: domain: S1; also called Delta S1

Row | Binder | Kd [1] [nM] | Kd [2] [nM]
1 | B1 | 0.00417 | 0.833
2 | B2 | 3.11 | 0.639
